The target in test [1] is T1, Human CD3εδ Fc heterodimer (Hu CD3ε Fc + CD3δ Fc-HIS) (human, UniProt P07766 22-126; P04234 22-100).
T1 construct: range 22-126;range 22-100; Made in HEK 293 cells with a heterologous signal peptide; also called Hu CD3εδ-Fc; CD3εδ Fc-HIS heterodimer; not shown: Fc; Fc followed by HIS tag
Kind of test: BLI (Octet), Fab monovalent, pH 6.0. On the procedure:
(§1) ForteBio KD measurements (Biolayer interferometry; BLI). ForteBio affinity measurements were performed generally as previously described (Estep, P., et al., High throughput solution-based measurement of antibody-antigen affinity and epitope binning. MAbs, 2013. 5(2): p. 270-8.). Briefly, ForteBio affinity measurements were performed by loading IgGs or CD3εδ Fe-HIS heterodimer onto AHC sensors. Sensors were equilibrated off-line in assay buffer for 30 min and then monitored on-line for 60 seconds for baseline establishment. Sensors with loaded IgGs were exposed to 100 nM antigen (e.g., CD3) for 3 min, afterwards they were transferred to assay buffer for 10 min for off-rate measurement. Sensors loaded with CD3εδ Fe-HIS heterodimer were exposed to 100 nM anti-CD3 Fab for 3 min, afterwards they were transferred to assay buffer for 3 min or 10 min for off-rate measurement. Kinetics were analyzed using the 1:1 binding model. For measuring binding at different pHs, measurements were performed at pre-determined pHs (e.g., pH 7.4 and pH 6.0).
(§2) Anti-CD3 antibodies A001-A005, V002, V004, V007, V009, V010, V013, and V014-V019 were produced as IgG1s in CHO cells, and Fab fragments were generated from IgG1 antibodies by papain digestion and purification as described in Example 2. Human, cynomolgus, rhesus, and mouse CD3εδ Fc heterodimers were produced, and monovalent binding affinity and avidity at pH 7.4 and pH 6.0 were measured using the Octet® HTX instrument (ForteBio) as described in Example 2.

Test [2] concerns the target T2, Cynomolgus CD3εδ Fc heterodimer (Cy CD3ε Fc + CD3δ Fc-HIS) (cynomolgus, UniProt Q95LI5 22-117; Q95LI8 22-100).
T2 construct: range 22-117;range 22-100; Made in HEK 293 cells with a heterologous signal peptide; also called Cy CD3εδ-Fc; cyno CD3εδ Fc; not shown: Fc; Fc followed by HIS tag
In words: BLI (Octet), Fab monovalent, pH 6.0. On the procedure:
as §1, §2

Test [3] deals with T1, Human CD3εδ Fc heterodimer (Hu CD3ε Fc …). Kind of test: BLI (Octet), Fab monovalent, pH 7.4. On the procedure: as §1, §2
(Biolayer interferometry detects binding as a change in optical thickness at a sensor tip.)

Test [4] concerns the target T2, Cynomolgus CD3εδ Fc heterodimer (Cy …). In words: BLI (Octet), Fab monovalent, pH 7.4. On the procedure: as §1, §2
For test [5], the target named is T3, Rhesus CD3εδ Fc heterodimer (rhesus).
T3 construct: extracellular domain; also called Rh CD3εδ-Fc
In words: BLI (Octet), Fab monovalent, pH 7.4. On the procedure: as §1, §2

Test [6] deals with T1, Human CD3εδ Fc heterodimer (Hu CD3ε Fc …). Kind of test: SPR (Biacore), Fab over immobilized CD3εδ Fc, pH 6.0. The protocol: (§3) Anti-CD3 antibodies A001-A005, V002, V004, V007, V009, V010, V013, and V014-V019 were produced in CHO cells, and Fab fragments were generated from IgG1 antibodies by papain digestion and purification as described in Example 2. Monovalent binding affinity at pH 7.4 and pH 6.0 was measured via surface plasmon resonance (SPR). Briefly, human or cynomolgus CD3εδ Fe heterodimer produced as described in Example 2 was immobilized to a CM5 sensor chip in a Biacore® X100 (Cytiva, previously GE Healthcare Life Sciences) to a response level of ˜500 RUs. Fabs were then injected at 3-fold increasing concentrations, ranging from 0.74-180 nM. The sensor chip was doubly regenerated between cycles using 0.35 M EDTA and 0.1 M NaOH. The resulting data were double reference subtracted and fit to a 1:1 binding model using Biacore® Evaluation Software.

For test [7], the target named is T2, Cynomolgus CD3εδ Fc heterodimer (Cy …). The description is as above. The protocol:
as §3

The target of test [8] is T1, Human CD3εδ Fc heterodimer (Hu CD3ε Fc …). Kind of test: SPR (Biacore), Fab over immobilized CD3εδ Fc, pH 7.4. The protocol:
as §3
(In general: In SPR one partner is held on a chip, and binding of the other changes the refractive index at the surface.)

The target in test [9] is T2, Cynomolgus CD3εδ Fc heterodimer (Cy …). The test is described as above. The protocol: as §3
The target of test [10] is T4, Human CD3 on CD3+ Jurkat cells (human, UniProt P07766 23-207).
T4 construct: whole, on cells; Target is the endogenous CD3 complex on cells; also called Human CD3+ Jurkat cells
T4 sequence (P07766 23-207): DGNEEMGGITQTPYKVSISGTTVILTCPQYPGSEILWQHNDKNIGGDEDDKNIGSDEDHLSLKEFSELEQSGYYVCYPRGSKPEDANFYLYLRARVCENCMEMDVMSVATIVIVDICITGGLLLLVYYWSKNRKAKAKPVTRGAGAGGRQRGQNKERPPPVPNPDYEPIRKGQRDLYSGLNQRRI
Kind of test: flow cytometry, 100 nM IgG1, pH 7.4. On the procedure: (§4) Cell binding assays. CD3+ human Jurkat cells (ATCC) and CHO-S cells (Invitrogen/ThermoFisher) were thawed and washed with cold PBSF buffer, pH 7.4 (PBS+0.1% BSA, pH 7.4). About 200,000 cells were aliquoted per well of a 96-well plate (FACS Assay Plate VWR BD 353263) and pelleted by centrifugation (5 minutes at 500×g). The cells were washed with either PBSF pH 7.4 or PBSF pH 6.0 (PBS+0.1% BSA, pH 6.0), and then resuspended in 100 μl in either PBSF pH 7.4 or PBSF pH 6.0 with IgG1 antibody (100 nM) produced in yeast as described above or in CHO cells. The mixture (cells+antibody) was incubated for 20 minutes on ice, then washed twice with either PBSF pH 7.4 or PBSF pH 6.0. Cells were resuspended in 50 μl of propidium iodide (Roche; 1:500 dilution) and anti-human IgG-RPE (Southern Biotech; 1:100 dilution) prepared in either PBSF pH 7.4 or PBSF pH 6.0, then incubated for 20 minutes on ice in the dark before cells were washed twice with either PBSF pH 7.4 or PBSF pH 6.0. Binding was analyzed on FACS Canto II.
(§5) Anti-CD3 antibodies A001-A005, V002, V004, V007, V009, V010, V013, and V014-V019 were produced as IgG1s in CHO cells, and binding to human CD3+ Jurkat cells and cynomolgus CD3+ HSC-F cells at pH 7.4 was analyzed by flow cytometry as described in Example 2. NCB (Normalized Cell Binding) values were calculated based on control and sample MFI values as NCB={(Sample MFI)−(Secondary only MFI)}/(Secondary only MFI).

The target in test [11] is T5, Cynomolgus CD3 on HSC-F cells (cynomolgus, UniProt Q95LI5 22-198).
T5 construct: whole, on cells; Target is the endogenous CD3 complex on cells; also called Cyno CD3 HSC-F cells; Cyno CD3+ HSC-F cells
T5 sequence (Q95LI5 22-198): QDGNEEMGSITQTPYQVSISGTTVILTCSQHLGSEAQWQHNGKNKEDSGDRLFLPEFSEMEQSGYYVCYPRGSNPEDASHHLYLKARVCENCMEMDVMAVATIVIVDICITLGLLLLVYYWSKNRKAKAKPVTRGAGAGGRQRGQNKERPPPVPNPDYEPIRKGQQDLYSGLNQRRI
Kind of test: flow cytometry, 100 nM IgG1, pH 7.4. The protocol: as §4, §5

Where a chain is given by its changes, count along the chain named.

T2 sequence (Q95LI5 22-117, stated change not applied, form in doubt, chain 1 of 2): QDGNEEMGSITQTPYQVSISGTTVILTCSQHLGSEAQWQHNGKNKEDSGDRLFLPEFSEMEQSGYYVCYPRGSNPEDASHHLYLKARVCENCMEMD
T2 sequence (Q95LI8 22-100, stated change not applied, form in doubt, chain 2 of 2): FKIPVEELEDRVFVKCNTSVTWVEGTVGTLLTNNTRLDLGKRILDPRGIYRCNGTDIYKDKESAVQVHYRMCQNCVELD
T1 sequence (P07766 22-126, stated change not applied, form in doubt, chain 1 of 2): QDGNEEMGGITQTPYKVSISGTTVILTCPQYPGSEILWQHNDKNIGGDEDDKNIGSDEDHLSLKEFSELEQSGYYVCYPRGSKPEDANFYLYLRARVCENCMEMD
T1 sequence (P04234 22-100, stated change not applied, form in doubt, chain 2 of 2): as the sequence (Q95LI8 22-100, stated change not applied, form in doubt, chain 2 of 2) above, with V5I, K15N, V20I, T32S, N33D, N34I, A64T, N74S counted along it

B1: Antibody No. A003 (ADI-26913) Fab (Fab, V domains shown)
VH: QVQLVQSGAEVKKPGASVKVSCKASGFNIKDYYMHWVRQAPGQRLEWMGWIDLENANTIYDAKFQGRVTITRDTSASTAYMELSSLRSEDTAVYYCARDQYGRYFYDVWGQGTLVTVSS
VL: DIVMTQSPDSLAVSLGERATINCKSSQSLLNARTGKNYLAWYQQKPGQPPKLLIYWASTRESGVPDRFSGSGSGTDFTLTISSLQAEDVAVYYCKQSYSRRTFGGGTKVEIK
notes: Fab by papain digestion of the IgG1
The Kd is the constant that tells how readily two partners part at equilibrium. Take B1: the Kd in test [1] was found to be 29 nM; in [2], 32 nM; in [3] it was 35 nM; in test [4], 28 nM; in [5] it was 33 nM; in [6] it was 11 nM. Besides, the dissociation constant Kd was determined as 11 nM in [7], 9.9 nM in [8] and 9.3 nM in [9].

B2: Antibody No. A003 (ADI-26913) IgG1 (antibody, V domains shown)
VH: B1 VH
VL: B1 VL
notes: IgG1, CHO-produced
For B2, the “NCB (Normalized Cell Binding)” value in test [10] came to 209; in test [11] it was 367.

B3: Antibody No. V015 (ADI-76358) IgG1 (antibody, V domains shown)
VH: B1 VH with N57D
VL: B1 VL
notes: IgG1, CHO-produced
With B3, the “NCB (Normalized Cell Binding)” value was determined as 334 in [10] and 369 in [11].

B4: Antibody No. A005 (ADI-26921) IgG1 (antibody, V domains shown)
VH: B1 VH with N55E, A56G, Q100A
VL: B1 VL with R100L
notes: IgG1, CHO-produced
B4: the “NCB (Normalized Cell Binding)” value in test [10] is 206; in [11] it was 364.

B5: Antibody No. V019 (ADI-76362) Fab (Fab, V domains shown)
VH: B1 VH with N55E, A56G, N57D, Q100A
VL: B1 VL with R100L
notes: as for B1
As for B5, the dissociation constant (Kd) in test [1] was found to be 36 nM; in test [2], 21 nM; in [3], 64 nM; in test [4] it was 34 nM; in test [5], 79 nM; in test [6] it was 33 nM. Further, the Kd in [7] was determined as 29 nM.

B6: Antibody No. V018 (ADI-76361) IgG1 (antibody, V domains shown)
VH: B1 VH with N28D, N55E, A56G, Q100A
VL: B1 VL with R100L
notes: IgG1, CHO-produced
Take B6: the “NCB (Normalized Cell Binding)” value in test [10] came out at 223; in test [11] it was 378.

B7: Antibody No. V017 (ADI-76360) Fab (Fab, V domains shown)
VH: B1 VH with N57D, A97G, Q100A
VL: B1 VL with R100L
notes: as for B1
For B7, the Kd in test [1] turned out to be 58 nM; in test [2], 34 nM; in [3] it was 420 nM; in [4], 96 nM; in test [6], 25 nM; in test [7], 26 nM. Besides, the Kd in test [8] was determined as 19 nM; in test [9] it was 16 nM.

B8: Antibody No. V019 (ADI-76362) IgG1 (antibody, V domains shown)
VH: B1 VH with N55E, A56G, N57D, Q100A
VL: B1 VL with R100L
notes: IgG1, CHO-produced
B8: the “NCB (Normalized Cell Binding)” value came out at 328 in [10] and 373 in test [11].

B9: Antibody No. A004 (ADI-26920) Fab (Fab, V domains shown)
VH: B1 VH with A97G, Q100A
VL: B1 VL with R100L
notes: as for B1
Turning to B9, the dissociation constant (Kd) in [1] came to 29 nM; in test [2] it was 23 nM; in test [3], 42 nM; in [4] it was 50 nM; in [5], 51 nM; in test [6], 16 nM. The Kd in test [7] is 15 nM; in [8], 10 nM; in test [9], 9 nM.

B10: Antibody No. V014 (ADI-76357) IgG1 (antibody, V domains shown)
VH: B1 VH with N28D
VL: B1 VL
notes: IgG1, CHO-produced
Regarding B10, the “NCB (Normalized Cell Binding)” value in test [10] was 349; in [11] it was 377.

B11: Antibody No. A004 (ADI-26920) IgG1 (antibody, V domains shown)
VH: B1 VH with A97G, Q100A
VL: B1 VL with R100L
notes: IgG1, CHO-produced
For the molecule B11, the entries for the “NCB (Normalized Cell Binding)” value in test [10] and in test [11] were 240 and 348, respectively.

B12: Antibody No. V017 (ADI-76360) IgG1 (antibody, V domains shown)
VH: B1 VH with N57D, A97G, Q100A
VL: B1 VL with R100L
notes: IgG1, CHO-produced
B12: the “NCB (Normalized Cell Binding)” value in test [10] came out at 325; in test [11], 376.

B13: Antibody No. V016 (ADI-76359) IgG1 (antibody, V domains shown)
VH: B1 VH with N28D, A97G, Q100A
VL: B1 VL with R100L
notes: IgG1, CHO-produced
Take B13: the results for the “NCB (Normalized Cell Binding)” value in [10] and in test [11] were 314 and 374, respectively.

These data come from US20240317858A1 (Adimab, published 2024).
